Measurements taken from article doi:10.1101/2020.04.29.065136.

Legend:
[1] = molecular target: SNAP25 (mouse (endogenous in mouse brain synaptosomes)) (UniProt P60879); assay: affinity purification with mass spectrometry
[2] = molecular target: SNAP25 (mouse (endogenous in mouse brain synaptosomes)) (UniProt P60879); assay: co-IP

Chain of UniProt P60879 (P60879 whole entry): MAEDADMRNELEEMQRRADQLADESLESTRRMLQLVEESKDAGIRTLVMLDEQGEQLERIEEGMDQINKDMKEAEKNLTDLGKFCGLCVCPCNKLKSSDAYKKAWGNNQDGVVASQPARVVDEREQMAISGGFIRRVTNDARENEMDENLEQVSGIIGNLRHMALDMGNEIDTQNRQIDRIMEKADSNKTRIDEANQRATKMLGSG

| Substance | fold increase of the interaction upon epi stimulation against the basal state [1] [fold] | amount pulled down with SNAP25 per half brain [2] [µg] |
| --- | --- | --- |
| Gβ1 (from UniProt P62874 1-340) (natural protein) | 10 | – |
| Gβγ (from UniProt P62874 1-340; P63216 1-75) (complex) | – | 1 |
